# Laboratory results: paper PMC7968997
# Residue numbers refer to the chain shown, from its start.
# T1: RBM45 RRM1-2 WT (Homo sapiens, UniProt Q8IUH3 23-202)
# T1 sequence: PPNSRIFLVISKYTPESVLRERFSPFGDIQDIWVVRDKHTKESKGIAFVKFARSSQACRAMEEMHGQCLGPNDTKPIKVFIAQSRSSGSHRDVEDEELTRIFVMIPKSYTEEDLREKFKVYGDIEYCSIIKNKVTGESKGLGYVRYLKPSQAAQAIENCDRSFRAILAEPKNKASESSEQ
# T2: RBM45 RRM1-2 F124A/Y165A (RRM1 analog) (Homo sapiens, UniProt Q8IUH3 23-202, F124A;Y165A)
# T2 sequence: T1 sequence with F102A, Y143A
# T3: RBM45 RRM1-2 F29A/F70A (RRM2 analog) (Homo sapiens, UniProt Q8IUH3 23-202, F29A;F70A)
# T3 sequence: T1 sequence with F7A, F48A
# B1: 12-mer GAC-polyU RNA (ssRNA)
# RNA: CGACGGUUUUUU
# B2: 14-mer 2-GAC RNA (ssRNA)
# RNA: CGACGGUUGGACGC
# B3: 10-mer 2-GAC RNA (ssRNA)
# RNA: CGACGGACGC
# B4: 20-mer 2-GAC RNA (ssRNA)
# RNA: CGACGGUUUUUUUUGGACGC
# B5: 22-mer 2-GAC RNA (ssRNA)
# RNA: CGACGGUUUUUUUUUUGGACGC
# B6: 9-mer 2-GAC RNA (ssRNA)
# RNA: CGACGACGC
# B7: polyU 6-mer RNA (ssRNA)
# RNA: UUUUUU
# B8: 12-mer 2-GAC RNA (ssRNA)
# RNA: CGACGGGGACGC
# B9: 11-nt ssDNA (ssDNA)
# DNA: CGACGGGACGC
# B10: 11-mer 2-GAC RNA (ssRNA)
# RNA: CGACGGGACGC
# B11: 26-mer 2-GAC RNA (ssRNA)
# RNA: CGACGGUUUUUUUUUUUUUUGGACGC
# B12: 16-mer 2-GAC RNA (ssRNA)
# RNA: CGACGGUUUUGGACGC
# B13: 18-mer 2-GAC RNA (ssRNA)
# RNA: CGACGGUUUUUUGGACGC
# B14: GG(m6A)CGG RNA (ssRNA)
# RNA: GGACGG
# modifications: m6A at position 3
# B15: GGACGG ssDNA (ssDNA)
# DNA: GGACGG
# Experiments:
# [1] = target: T1, RBM45 RRM1-2 WT; assay: gel filtration, SEC-MALS
# [2] = target: T1, RBM45 RRM1-2 WT; assay: gel filtration, SEC-MALS; remark: listed apart in the source
# [3] = target: T1, RBM45 RRM1-2 WT; assay: gel filtration
# [4] = target: T1, RBM45 RRM1-2 WT; assay: gel filtration, SEC-MALS; remark: listed apart in the source
# [5] = target: T1, RBM45 RRM1-2 WT; assay: gel filtration, SEC-MALS; remark: listed apart in the source
# [6] = target: T1, RBM45 RRM1-2 WT; assay: fluorescence polarization
# [7] = target: T1, RBM45 RRM1-2 WT; assay: gel filtration, SEC-MALS; remark: listed apart in the source
# [8] = target: T1, RBM45 RRM1-2 WT; assay: crystal structure
# [9] = target: T1, RBM45 RRM1-2 WT; assay: gel filtration, SEC-MALS; remark: listed apart in the source
# [10] = target: T1, RBM45 RRM1-2 WT; assay: gel filtration, SEC-MALS; remark: listed apart in the source
# [11] = target: T1, RBM45 RRM1-2 WT; assay: gel filtration, SEC-MALS; remark: listed apart in the source
# [12] = target: T1, RBM45 RRM1-2 WT; assay: fluorescence polarization; remark: listed apart in the source
# [13] = target: T2, RBM45 RRM1-2 F124A/Y165A (RRM1 analog); assay: fluorescence polarization
# [14] = target: T3, RBM45 RRM1-2 F29A/F70A (RRM2 analog); assay: fluorescence polarization
# [15] = target: T2, RBM45 RRM1-2 F124A/Y165A (RRM1 analog); assay: fluorescence polarization; remark: listed apart in the source
# [16] = target: T3, RBM45 RRM1-2 F29A/F70A (RRM2 analog); assay: fluorescence polarization; remark: listed apart in the source
binder,measurement,setting,value
B1,binding result,[1],binds
B2,binding result,[2],binds
B3,binding result,[3],binds
B4,binding result,[4],binds
B5,binding result,[5],binds
B6,binding result,[3],binds
B7,Kd,[6],57200 ± 10200 nM
B8,binding result,[7],binds
B9,binding result,[8],binds
B10,binding result,[9],binds
B11,binding result,[10],binds
B12,binding result,[2],binds
B13,binding result,[11],binds
B14,binding result,[12],binds
same,binding result,[13],binds
same,binding result,[14],binds
B15,Kd,[6],805 ± 108 nM
same,Kd,[15],1210 ± 90 nM
same,Kd,[16],2310 ± 190 nM
